The text below walks through data of patent US20050026841A1, “Hab18g/cd147 its antagonist and application” (priority 2001, published 2005).

One test deals with HHCCs. The test can be described thus: reconstituted basement membrane invasion assay with antagonistic peptides. The class given is cell-based, human. As to conditions: for inhibitory rate (%): invasion of HHCCs through reconstituted basement membrane, 20 hours, vs control; for inhibition of hepatocellular carcinoma cells invasion and metastasis (in words): reconstituted basement membrane invasion. Here is the method:
Matrigel (main component was type IV collagen, BD Company) was added onto the inner surface of Boyden Chambers (Millipore) to form the reconstituted basement membrane. Cells (HHCC cells and human fibroblasts) and antisense RNA were added and the chambers were put in the 24-well plates and co-cultured overnight. Cells infiltrated through the reconstituted basement membrane and appeared on the outer surfaces of the membrane were stained and counted under high-power microscope.
1. in vitro studies: reconstituted basement membrane invasion was employed to test the effects of the antagonistic peptides for HAb18G/CD147 on the invasive ability of HHCCs. Antagonistic peptides were co-cultured with HHCCs and fibroblasts on the reconstituted basement membrane for 20 hours. Cells infiltrated through the reconstituted basement membrane were counted under high-power microscope and the inhibitory rate of the antagonistic peptides was calculated.

A further test deals with HHCC cells. Kind of test: tumorigenesis of HHCC cells inoculated in mice. Type of test: in vivo. The conditions noted are these: i.v. 2.5 mg/kg; for inhibitory effect on tumorigenesis of hepatocellular carcinoma cells: 200 μl HHCC cells (1×10^6/ml). Here is the method:
2. in vivo studies: The mice were inoculated with 200 μl HHCC cells (1×10^6/ml) and were then treated with HAb18G/CD147 antagonistic peptides (i.v.) at the dose of 2.5 mg/kg weight. […] Moreover, the average survival time of mice in therapeutic group was two times as long as that of the control group. A high metastatic human hepatocellular carcinoma cell line MHCC97-H was transplanted into the liver of nude mice to investigate the anti-metastasis effects of APs. […] The inhibitory effects of HAb18G/CD147 antagonistic peptides on angiogenesis in chick embryo chorioallantoic membrane (CAM) as well as on angiogenesis induced by Matrigel plug were detected.

For test [1], the target named is T1, HAb18G/CD147 on HHCC hepatocellular carcinoma cells (human, UniProt P35613 140-385, glycosylated (mode not specified)).
T1 sequence: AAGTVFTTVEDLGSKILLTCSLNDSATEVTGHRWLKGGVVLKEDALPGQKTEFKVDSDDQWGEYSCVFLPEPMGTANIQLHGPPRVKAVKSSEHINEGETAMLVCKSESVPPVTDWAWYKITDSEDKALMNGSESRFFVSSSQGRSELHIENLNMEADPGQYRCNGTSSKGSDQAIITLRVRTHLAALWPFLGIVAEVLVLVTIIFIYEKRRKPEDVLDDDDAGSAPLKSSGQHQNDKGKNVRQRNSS
Kind of test: cell-based or functional assay.

Another test has as its system human fibroblasts. The test can be described thus: gelatin zymography of human fibroblasts stimulated by purified HAb18G/CD147. The class given is cell-based. The conditions noted are these: MMP-9, MMP-2 and MT1-MMP. Here is the method:
The experiments were carried out as follows:
Purified HAb18G/CD147 was added to the cultured human fibroblasts and the supernatant of the culture was collected and then subjected to SDS-PAG electrophoresis in a separation gel containing 1 mg/ml gelatin. Different from the conventional SDS-PAGE, no DTT was added to the sample and furthermore, the sample was not boiled. After electrophoresis, the gel was washed twice (45 min/each time) at room temperature and washed twice (20 min/each time) with 0.1 mol/L NaCl, and then incubated for 24 hours in an incubation solution at 37° C. The gel was stained with 0.5% (w/v) Coomassie Blue and then destained. MMPs were detected as clear bands against a blue background.

Marks after values point to notes of the source that are not given here. Where no end group is shown, it is not given here.

On to “ANIVPIHANHFQ [AP-7, antagonistic 12-mer peptide for HAb18G/CD147]”, for which, in the test with HHCCs, the “inhibitory rate (%)” value is given as 56.44^a %; the “inhibition of hepatocellular carcinoma cells invasion and metastasis (in words)” value (shortened to “inhibition”) is recorded as “significantly inhibited”.

For “GHWHNHRHQAPL [AP-3, antagonistic 12-mer peptide for HAb18G/CD147]”, the “inhibition” value in the test on HHCCs is “significantly inhibited”.

Consider “MHKHPHGSQGPT [AP-8, antagonistic 12-mer peptide for HAb18G/CD147]”, for which, in the test on HHCCs, the “inhibitory rate (%)” value was 68.32^a %; the “inhibition” value is “significantly inhibited”.

For “MTHDPVISLPTT [AP-1, antagonistic 12-mer peptide for HAb18G/CD147]”, the “inhibitory effect on tumorigenesis of hepatocellular carcinoma cells” value in the test on HHCC cells was “significant inhibitory effects”. For the same molecule, in the test with HHCCs, the “inhibitory rate (%)” value was 78.2^a %; the “inhibition” value is given as “significantly inhibited”.

Turning to “YKLPGHHHHYRP [AP-9, antagonistic 12-mer peptide for HAb18G/CD147]”, in the test on HHCCs, the “inhibitory rate (%)” value is listed as 81.19^a %; the “inhibition” value is recorded as “significantly inhibited”.

As for “YPFHHKHWHRPN [AP-6, antagonistic 12-mer peptide for HAb18G/CD147]”, in the test on HHCC cells, the “inhibitory effect on tumorigenesis of hepatocellular carcinoma cells” value was “significant inhibitory effects”. Moreover, the “tumor formation on the 11th day from inoculation” value in the test with HHCC cells (HHCC cells, tumors formed in all control mice) is reported as “no tumor formed”. Also, in the test with HHCCs, the “inhibitory rate (%)” value is reported as 62.38^a %; the “inhibition” value was “significantly inhibited”.

B1: HAb18G/CD147 binding/antagonistic peptide (7) (peptide)
peptide: ANIVPIHANHFQ
As to B1, in test [1], the infiltrative cells came to 8.8 cells and the “inhibitory rate (%)” value is 56.4%.

B2: HAb18G/CD147 binding/antagonistic peptide (1) (peptide)
peptide: MTHDPVISLPTT
As for B2, in test [1], the infiltrative cells was 4.4 cells and the “inhibitory rate (%)” value came to 78.2%.

B3: HAb18G/CD147 binding/antagonistic peptide (5) (peptide)
peptide: IGWHYYLRTQHS
As to B3, in test [1], the infiltrative cells amounted to 23.2 cells and the “inhibitory rate (%)” value is -14.8%.

B4: HAb18G/CD147 binding/antagonistic peptide (9) (peptide)
peptide: YKLPGHHHHYRP
As for B4, in test [1], the infiltrative cells came to 3.8 cells and the “inhibitory rate (%)” value was 81.2%.

B5: HAb18G/CD147: hepatocellular carcinoma-associated antigen of 269 amino acids, purified from HHCC cells by HAb18 affinity chromatography (protein, listed as Homo sapiens)
chain: MAAALFVLLGFALLGTHGASGAAGTVFTTVEDLGSKILLTCSLNDSATEVTGHRWLKGGVVLKEDALPGQKTEFKVDSDDQWGEYSCVFLPEPMGTANIQLHGPPRVKAVKSSEHINEGETAMLVCKSESVPPVTDWAWYKITDSEDKALMNGSESRFFVSSSQGRSELHIENLNMEADPGQYRCNGTSSKGSDQAIITLRVRTHLAALWPFLGIVAEVLVLVTIIFIYEKRRKPEDVLDDDDAGSAPLKSSGQHQNDKGKNVRQRNSS
With B5, the “MMPs secreted by human fibroblasts after stimulation” value in the test with human fibroblasts was “secreted three different MMPs”.

B6: HAb18G/CD147 binding/antagonistic peptide (6) (peptide)
peptide: YPFHHKHWHRPN
As for B6, in test [1], the infiltrative cells was found to be 7.6 cells and the “inhibitory rate (%)” value is 62.4%.

B7: HAb18G/CD147 binding/antagonistic peptide (8) (peptide)
peptide: MHKHPHGSQGPT
Regarding B7, in test [1], the infiltrative cells came out at 6.4 cells and the “inhibitory rate (%)” value was determined as 68.3%.

B8: HAb18G/CD147 binding/antagonistic peptide (4) (peptide)
peptide: KYPHQHLHMHDS
Turning to B8, in test [1], the infiltrative cells came out at 12.2 cells and the “inhibitory rate (%)” value came out at 39.6%.

B9: HAb18G/CD147 binding/antagonistic peptide (3) (peptide)
peptide: GHWHNHRHQAPL
Turning to B9, in test [1], the infiltrative cells came to 2 cells and the “inhibitory rate (%)” value came out at 90.1%.

B10: HAb18G/CD147 binding/antagonistic peptide (2) (peptide)
peptide: LHRHSHGHSYKS
For the molecule B10, in test [1], the infiltrative cells was found to be 28 cells and the “inhibitory rate (%)” value was -38.6%.
